Here are results for 41 molecules from patent publication US20030180744, “High affinity oligonucleotide ligands to growth factors” (GILEAD SCIENCES, INC., published 2003).

Residue numbers refer to the chain shown, from its start.

For the series, the target named is T1, KGF (hKGF) (Homo sapiens, UniProt P21781 P21781:32-194).
T1 sequence: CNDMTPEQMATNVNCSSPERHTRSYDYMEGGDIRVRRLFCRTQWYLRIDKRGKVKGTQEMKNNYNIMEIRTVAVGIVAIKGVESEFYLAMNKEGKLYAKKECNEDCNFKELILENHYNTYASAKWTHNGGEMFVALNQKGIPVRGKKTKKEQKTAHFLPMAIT
As to the kind of experiment: filter; DPBS, 37 C. The following applies: tags: Upstate Biotechnology, label: 32P.

B1: 7F (ssRNA)
RNA: GGGAGGACGAUGCGGCGGGUACUCUUCGCCAGCUCCUCCAAGCGCGACCUGUGCCCAGACGACUCGCCCGA
modifications: 2'-F pyrimidines
For orientation: Kd means the constant that tells how readily two partners part at equilibrium. B1: the Kd was 3.69 nM.

B2: 53F (ssRNA)
RNA: GGGAGGACGAUGCGGAUCAAAAGCACUCAUUCCCGUGCUCGCUUCAUUGGUCCCCCAGACGACUCGCCCGA
modifications: 2'-F pyrimidines
Molecule B2 returned a Kd of 0.7 nM.

B3: 24N (ssRNA)
RNA: GGGAGGACGAUGCGGGUGGGAAGAUGAGCCGGUCGGCAGUAAUGUGACACUGCGGCAGACGACUCGCCCGA
modifications: 2'-NH2 pyrimidines
B3 displayed a Kd of 1.16 nM.

B4: 35N (ssRNA)
RNA: GGGAGGACGAUGCGGGCUUAGGGAAAUGGUUCUGAGGUGGUCAGACGACUCGCCCGA
modifications: 2'-NH2 pyrimidines
Turning to B4, the Kd is 2.32 nM.

B5: 47N (ssRNA)
RNA: GGGAGGACGAUGCGGGAAGGGUAGGAAGGUCAAGAGGAAACAGCGCUUCGGGGUGCAGACGACUCGCCCGA
modifications: 2'-NH2 pyrimidines
With B5, binding was characterised by a dissociation constant (Kd) of 1.76 nM.

B6: 72N (ssRNA)
RNA: GGGAGGACGAUGCGGGAGGGGAAAAUGAGACCGACAGAUUGACGGAAGUACUGGGCAGACGACUCGCCCGA
modifications: 2'-NH2 pyrimidines
For the molecule B6, the Kd came to 7.67 nM.

B7: 22F (ssRNA)
RNA: GGGAGGACGAUGCGGCCUGAAGUACAGGCUCUAAACUCCAAGCGCGACCGUCCGCCAGACGACUCGCCCGA
modifications: 2'-F pyrimidines
Turning to B7, binding was put at a Kd of 2.75 nM.

B8: 11F (ssRNA)
RNA: GGGAGGACGAUGCGGUGAUGGCGACCAGUCAAACCGGUGCUUUUACUCCCCCGCCAGACGACUCGCCCGA
modifications: 2'-F pyrimidines
Turning to B8, the equilibrium dissociation constant (Kd) stood at 3.74 nM.

B9: 60F (ssRNA)
RNA: GGGAGGACGAUGCGGUGACAUGGAAUUUUCUACGGGCCCGAUCCUGCCAGCCGUGUGCAGACGACUCGCCCGA
modifications: 2'-F pyrimidines
In turn, B9 came in with a Kd of 2.1 nM.

B10: 71N (ssRNA)
RNA: GGGAGGACGAUGCGGAAACGGCGUGGCAAAAGUGAGGGGGUAGGAUGUACCAUGGGUCAGACGACUCGCCCGA
modifications: 2'-NH2 pyrimidines
The molecule B10 yielded a Kd of 3.52 nM.

B11: 55N (ssRNA)
RNA: GGGAGGACGAUGCGGACACACAAGUGAAGGUCAGACGCGAAUUACGUGGGUGGGCAGACGACUCGCCCGA
modifications: 2'-NH2 pyrimidines
B11 yielded a Kd of 1.25 nM.

B12: 27F (ssRNA)
RNA: GGGAGGACGAUGCGGCAGUCUGGAUCUCUAUUGGAAUUUAGUCCUCAACUGUGCCCCAGACGACUCGCCCGA
modifications: 2'-F pyrimidines
Molecule B12 displayed a Kd of 1.52 nM.

B13: 28N (ssRNA)
RNA: GGGAGGACGAUGCGGUUGCUCUACAAUGACGCGGUGACUCCGCAGUUCUUGGACACAGACGACUCGCCCGA
modifications: 2'-NH2 pyrimidines
B13 returned an equilibrium dissociation constant (Kd) of 2.54 nM.

B14: 29F (ssRNA)
RNA: GGGAGGACGAUGCGGGGACUUCAACUAAGUCCUCAUUUGCCUCGCUCCUCGUGCCCAGACGACUCGCCCGA
modifications: 2'-F pyrimidines
In turn, B14 yielded a Kd of 3.24 nM.

B15: 48N (ssRNA)
RNA: GGGAGGACGAUGCGGGGCAAAGGAAGUUGGAAUCGGGACUAAGUAGUGUGUGGCCAGACGACUCGCCCGA
modifications: 2'-NH2 pyrimidines
In the case of B15, binding was put at a Kd of 1.34 nM.

B16: 25N (ssRNA)
RNA: GGGAGGACGAUGCGGGAGGGAAUGAGGAAACAACUAGCAGAUAACCGAGCUGGCCAGACGACUCGCCCGA
modifications: 2'-NH2 pyrimidines
B16 yielded a Kd of 0.87 nM.

B17: 10N (ssRNA)
RNA: GGGAGGACGAUGCGGUAGCUGCUGUCAUGCAAGACACUAGAAGAUUAAGAUGGGGCAGACGACUCGCCCGA
modifications: 2'-NH2 pyrimidines
Molecule B17 gave a Kd of 1.1 nM.

B18: 41F (ssRNA)
RNA: GGGAGGACGAUGCGGGGACUUUGACAGGCAUUGAUUUCGACCUGUUCCCCGUGGCCAGACGACUCGCCCGA
modifications: 2'-F pyrimidines
Consider B18, for which the Kd amounted to 1.44 nM.

B19: 49F (ssRNA)
RNA: B18 RNA with C42G
modifications: 2'-F pyrimidines
B19 had a Kd of 1 nM.

B20: 9F (ssRNA)
RNA: GGGAGGACGAUGCGGAUAAUGGCUAGAACUAGCUCGCAUCUUGGUGUCCGGUGCCCAGACGACUCGCCCGA
modifications: 2'-F pyrimidines
B20 displayed a Kd of 0.83 nM.

B21: 42F (ssRNA)
RNA: GGGAGGACGAUGCGGCGACACAAUAGCCUUUGAUCCCAUGAUGGCUCGCCGUGCCCAGACGACUCGCCCGA
modifications: 2'-F pyrimidines
The molecule B21 registered a Kd of 0.9 nM.

B22: 36N (ssRNA)
RNA: GGGAGGACGAUGCGGGAAGGGAACAGGAUAAGACAAGUCGAACAAAGCCGAGGUGCAGACGACUCGCCCGA
modifications: 2'-NH2 pyrimidines
With B22, the Kd is 8.27 nM.

B23: 2F (ssRNA)
RNA: GGGAGGACGAUGCGGGCAUUCGUCAAUACCUUGUUUUAUUCCUUUUCUAGCGGCCCAGACGACUCGCCCGA
modifications: 2'-F pyrimidines
Consider B23, for which binding was put at a Kd of 1.77 nM.

B24: 57F (ssRNA)
RNA: GGGAGGACGAUGCGGUGACUAUCUGGCUCGAUCCAAUCACCCGAGCCCACCGCGCCAGACGACUCGCCCGA
modifications: 2'-F pyrimidines
B24: the Kd came to 1.2 nM.

B25: 35F (ssRNA)
RNA: GGGAGGACGAUGCGGCGAAAUUAGCUUCUUAUGACUCACGUUUCCUUGCCGCCCCAGACGACUCGCCCGA
modifications: 2'-F pyrimidines
Molecule B25 had a Kd of 1.1 nM.

B26: 58F (ssRNA)
RNA: GGGAGGACGAUGCGGGAACUAAUGGCCGUGAUUAACCAAUGCAGGCUUCCUGCGCCAGACGACUCGCCCGA
modifications: 2'-F pyrimidines
B26 registered a Kd of 2.52 nM.

B27: 8F (ssRNA)
RNA: GGGAGGACGAUGCGGUUUCGAAUAGGGCCAUUUCUCACUAGCUAUCCUACCCUGCCCAGACGACUCGCCCGA
modifications: 2'-F pyrimidines
The molecule B27 registered a Kd of 2.63 nM.

B28: 11N (ssRNA)
RNA: GGGAGGACGAUGCGGGGGCCGGAUUUGAACCGACGACUUCGGGUUAUGAGCCCGACGUCAGACGACUCGCCCGA
modifications: 2'-NH2 pyrimidines
The molecule B28 gave a Kd of 1.28 nM.

B29: 54F (ssRNA)
RNA: GGGAGGACGAUGCGGAAGAUCUCCCAACUGCUGUGGCUAAUAAUUCUCUCCGCGUCCCCAGACGACUCGCCCGA
modifications: 2'-F pyrimidines
With B29, the Kd was 1.23 nM.

B30: 55F (ssRNA)
RNA: GGGAGGACGAUGCGGUCCGUCAUAACGGCCAUAAACUGCGAAUACUCCCUGGCCCAGACGACUCGCCCGA
modifications: 2'-F pyrimidines
B30 yielded a Kd of 2.52 nM.

B31: 60N (ssRNA)
RNA: GGGAGGACGAUGCGGCCCCUUAGCUCAGUGGUUAGAGCAGACGACUCGCCCGA
modifications: 2'-NH2 pyrimidines
On to B31, for which binding was characterised by a dissociation constant (Kd) of 7.38 nM. Still for that read-out and setting: in the case of GGGAGGACGAUGCGGAUGGAGCUGAAAUCAGACGACUCGCCCGA (ssRNA, 2'-NH2 pyrimidines) [22N] it was 5.7 nM.

B32: 45F (ssRNA)
RNA: GGGAGGACGAUGCGGGUCGUAUUCAUCUCCUUGUUCUGUUUCGUUGCACCUGGCCCAGACGACUCGCCCGA
modifications: 2'-F pyrimidines
Take B32: the Kd came out at 4.7 nM.

B33: 16N (ssRNA)
RNA: GGGAGGACGAUGCGGAAGUUCUAACAAGUUAGUGGAAGGUUCCACUUGAAUGUACAGACGACUCGCCCGA
modifications: 2'-NH2 pyrimidines
Take B33: the affinity, expressed as Kd, was 1.4 nM.

B34: 34N (ssRNA)
RNA: GGGAGGACGAUGCGGGCGGGAAGAGCUAAUGGAAGUGGAAUCAGUCACAGUGCGGCAGACGACUCGCCCGA
modifications: 2'-NH2 pyrimidines
With B34, the Kd turned out to be 0.8 nM.

B35: 54N (ssRNA)
RNA: GGGAGGACGAUGCGGAGAACCAACAGAGCCCCCUGGUGGUGGGGGAAGGAUUCUCAGACGACUCGCCCGA
modifications: 2'-NH2 pyrimidines
In the case of B35, for the setting “dumbbell (predicted)”, the Kd was 5.35 nM.

B36: 5F (ssRNA)
RNA: GGGAGGACGAUGCGGCGUCCCGAGUCACGCUGUCCUGAUAACCUUCUCUGUGCCCAGACGACUCGCCCGA
modifications: 2'-F pyrimidines
For B36, the Kd came to 2.53 nM.

B37: 69N (ssRNA)
RNA: GGGAGGACGAUGCGGGUAGGGAGUAGGACAGACAUAACAGUGCAACCAUCGUGGCCAGACGACUCGCCCGA
modifications: 2'-NH2 pyrimidines
On to B37, for which binding was characterised by a dissociation constant (Kd) of 15.2 nM.

B38: 24F (ssRNA)
RNA: GGGAGGACGAUGCGGUGGUCUCCCUAGAUCUACAGCACUUCCAUCGCAUUGGGCCAGACGACUCGCCCGA
modifications: 2'-F pyrimidines
B38 came in with a Kd of 2.02 nM.

B39: 23F (ssRNA)
RNA: GGGAGGACGAUGCGGCCCUACCACUUUUUCCCUCUACUGUUAUCCUGUCCCCCAGACGACUCGCCCGA
modifications: 2'-F pyrimidines
For B39, the Kd worked out at 2.52 nM.

B40: 3F (ssRNA)
RNA: GGGAGGACGAUGCGGAUCGUAAUCGCCACUACUACUUUCCGAACCCGCACGUGGCCAGACGACUCGCCCGA
modifications: 2'-F pyrimidines
In the case of B40, binding was characterised by a dissociation constant (Kd) of 4.47 nM.
